Reference: the DeepSol protein solubility set

assay: soluble on expression in E. coli; label from the status in PepcDB or PDB records

**Q.** For “MGSDKIHHHHHHMSENIRALSRGLNVLEFLSETGGATRQATVAHFGLSRPTIYRLLGTLEKSGLISLGDDGVYRPTIATRALKEGLTDDVWALWAAEPILLELQKEVVWTSEITTFDAYSCTMLKRDTTHSLNPYHINLLDFDDNHRSMLTSACGLAYLAFCPQQQRAQILEHLGHFGDRTQSDSQRPDSQRGAGAHTRNLINKVISDGYAVEQRNSYPLIAAIAVPIRYDNRVLACLSIVWLPRAVKLQDGITQFLPALKRAQSFIEQKLLDDASIEYDTNFTAKYVHHGQQHELI”, which “soluble on expression in E. coli” value is on record?
**A.** not soluble

**Q.** With “MGSDKIHHHHHHMSERKPIPKSVKKVLRSEVGFGCPVKGCGNPYLEYHHFDPPVSVKPHNEPEGMIALCAQHHKKADGGAYTIEQLHALKKDKANAKLVRGNLDWLRKDLLAVVGGNFYYETPRIITIDNIDLVSLVRDEDGYLRLNVNMLSLEPDERIIIEENSWENIGSPLDLRSPPQGKELEISYHNGDYLYLRFIELQSFEQAQQRYETDVFKDITFPITAVEVNMTIAGTRIELTPISSQLGGIKMTGCLSSHCGGGVVIQNSGIQWKQNPVWKRKTLVEETEHPNVVKVNFGRR” as the sequence, how does the “soluble on expression in E. coli” value read?
**A.** not soluble

**Q.** With “MGSDKIHHHHHHMSERPTLHVVSLSGGKDSTATLCVALEQHGSENVRAVMADTGNEDEQNLEYALDYLPRALGIPVDVVRADFTDEFATKRANLARIAAGEPESAVYGKREFMYRWTPEAAARALEVLHPTGIPFLDLCLVRGGFPSRKRQFCTQYLKTEQLVGYALREIDRGYAVWSWQGVRIDESDSRRERLQGTGACVKAFEVVGGGLFNYRPILRWSAADVFEAHAAAGIRPNPLYRQGMSRVGCMPCINAGKLELREIARRFPEHVERIAEWERLVSEVCRPGSPVSFFHQGTTGHTGQASTIWKVVDWSKTSRGGRQYDLLADAEPATACSSAYGLCE” as the sequence, how does the “soluble on expression in E. coli” value read?
**A.** not soluble

**Q.** With “MGSDKIHHHHHHMSFTTWTPPAVASERQPFALTLWRAVEAQHVVSTMPLVDSLDEQAVLEAVLDAGKPAVPAEARHLHYLLFTPFRYPPSPWGSRFRAGQDPGVFYGAEEIRTACAELGYWRWRFLNDSPALPRIDARAQTLFQVSVRTEGVALDTPPFDRDSAQWTDPDSHEACQAFGRIAREAGIGLIRYTSVRDPGHGPCGAVMTPRAFDHPLPLATTTWMLTVRRDRVIWQRDDLQQRDSFEFAASLWQRTSERSPEG” as the sequence, how does the “soluble on expression in E. coli” value read?
**A.** not soluble

**Q.** With “MGSDKIHHHHHHMSHLLKPKPNLLLIDDDEDVLDACRQLFNLSGYQVRATNSPQKALEALSRDWDGVVISDIYMPAMHGLDLLAAVHHIDPQIPVIMITGHADIPLAVKAVKQGAADFIEKPLDPPTFLALVKKAATQRHQLIGQRQNIQDSLAGQLLGSSAQINDLREQLGQLALTDRDVMLEGPRGVGRNTLAALLHKLGPRAEGPLQQLECALVESPEKLQQAVDASRGGTLILRELEHLPTDSQRWLASFLLDQERRGNKEVRTIAILESQPETLVQEQTLTPECFYYFSQVRLRLPALCERPSDIVPLFMAFLKESCRRLSRKMPTVENRYLDNLKQHSWPGNVRELRNVAELYAVGIVKLANVQRIAAAPSVKGPLDELVDDYEKRLIEDALFLFSGRVSEAADYLNVPRKKLYLRMKKYGLDKECFKPVKPGRG” as the sequence, how does the “soluble on expression in E. coli” value read?
**A.** not soluble

**Q.** For “MGSDKIHHHHHHMSHNIKYRQLKAFRILAESGSFKHAADSLAVTQPSMSIMIRELESDLGVALIDRATRSAELTDAGRDFYQQIKGSLDQLEKAYSYANAAGKAEHGRVRIATLTSLAAEAVTTAIARMHAERPGIQIELMERTYFLALRRREVDLGVGILHEAHADLDFQYLFSDQLVVVTPKGHPLARQRQPLKHLGKYDVVVVSPGPSLEALQELDADCAPPVQVEQPSTAITMVRKGLGVTVTSSSATTGLDMRGLAAVPIPGTTRDVGVITLAQARLSPVASAFLRCLRHVHPAG”, which “soluble on expression in E. coli” value is on record?
**A.** not soluble

**Q.** Which “soluble on expression in E. coli” value does the source give for “MGSDKIHHHHHHMSHSLTSVFQKIDSLKPQFFSRLTKAIQIPAVSSDESLRSKVFDKAKFISEQLSQSGFHDIKMVDLGIQPPPISTPNLSLPPVILSRFGSDPSKKTVLVYGHYDVQPAQLEDGWDTEPFKLVIDEAKGIMKGRGVTDDTGPLLSWINVVDAFKASGQEFPVNLVTCFEGMEESGSLKLDELIKKEANGYFKGVDAVCISDNYWLGTKKPVLTYGLRGCNYYQTIIEGPSADLHSGIFGGVVAEPMIDLMQVLGSLVDSKGKILIDGIDEMVAPLTEKEKALYKDIEFSVEELNAATGSKTSLYDKKEDILMHRWRYPSLSIHGVEGAFSAQGAKTVIPAKVFGKFSIRTVPDMDSEKLTSLVQKHCDAKFKSLNSPNKCRTELIHDGAYWVSDPFNAQFTAAKKATKLVYGVDPDFTREGGSIPITLTFQDALNTSVLLLPMGRGDDGAHSINEKLDISNFVGGMKTMAAYLQYYSESPEN” here?
**A.** not soluble

**Q.** Which “soluble on expression in E. coli” value does the source give for “MGSDKIHHHHHHMSHTLYEASVIRVQRCELAVPGSNPGMFEKALKSGVDFVFLDLEDAVAPDDKLTARKNVIEALNDLDWRGHGVTVSVRINGLDTQFMVRDVVDVVEKAGHKLDTILIPKVGVYSDVYMVEAMLNQLEMQQGLKNRIGIEALIETALGMANVEDIARHGVRGRLEALHFGVADYAASNRARTTNIGGLNPDYPGDQWHAAISRMTVACRAYGLRPIDGPFGDIQDPEGYKAAARRAAALGCEGKWAIHPSQIDLANEVFTPPPSEVEKAQRILAALQEAAAQGKGAAALDGRLIDAASARMANNVVKMAEAIGATAT” here?
**A.** not soluble

**Q.** Which “soluble on expression in E. coli” value does the source give for “MGSDKIHHHHHHMSHWFFIINPTAGHRNGLRVWKSIQKELIKRKVEHRSFLTEHPGHAEVLARQISTIQEYKLKRLIVIGGDGTMHEVVNGLKDVDDIELSFVPAGAYNDFSRGFSIKKIDLIQEIKKVKRPLTRTFHLGSVNFLQDKSQILYFMNHIGIGFDAYVNKKAMEFPLRRVFLFLRLRFLVYPLSHLHASATFKPFTLACTTEDETREFHDVWFAVVSNHPFYGGGMKAAPLANPREKTFDIVIVENQPFLKKYWLLCLMAFGKHTKMDGVTMFKAKDITFYTKDKIPFHADGEIMGTTPFRLASSPSPLRIKT” here?
**A.** not soluble

**Q.** Which “soluble on expression in E. coli” value does the source give for “MGSDKIHHHHHHMSIAVTTTDPTNTGVSTTSSSSLTGSNAADLQSSFLTLLVAQLKNQDPTNPMENNELTSQLAQISTVSGIEKLNTTLGSISGQIDNSQSLQASNLIGHGVMIPGTTVLAGTGSEEGAVTTTTPFGVELQQAADKVTATITDKNGAVVRTIDIGELTAGVHSFTWDGTLTDGSTAPNGSYNVAISASNGGTQLVAQPLQFALVQGVIRGNSGNTLDLGTYGTTTLDEVRQII” here?
**A.** not soluble

**Q.** For “MGSDKIHHHHHHMSIKLDHRLLYLRVIEKIKSDIDDGVYKEGEKLPSEFELSKQLGVSRATLREALRILEDENIVIRKHGVGTFINARPPFTSGIEELYSVTEMIARAGMIPTSEVLSSEMVQPTERDRERFQLGPDELVYRIERIRLAGDVPVVYCVDKIPSHYIKNEEQFTSSTSLFDALEKELGRRVTHAVTHIEPRIDPKIAEQLHTDQPLLVLRQTHYDELDRSVLYSANYFRADKFDFHVIRKRV”, which “soluble on expression in E. coli” value is on record?
**A.** not soluble

**Q.** Which “soluble on expression in E. coli” value does the source give for “MGSDKIHHHHHHMSILNVEHLSHGFGDRAIFEDVSFRLLKGEHIGLVGANGEGKSTFMNIITGRLMPDEGKIEWAKKVRVGYLDQHTALEKGMTIGSVLSSAFDFLYDMENEMNDIYARLGDVDEDEMNKLMEEAGTIQDMLTMHDFYMIDAKVEEVARALGLLDLGLDKDVTDLSGGQRTKVLMGKLLLEKPDILLLDEPTNYLDVEHIEWLKRYLNDYENAFILISHDIPFLNSVVNLIYHMDNKKLDRYVGDYDKFMEVYEMKKAQLEAAYNKQQQEIKELKDFVARNKARVATRNMAMSRQKKLDKMDVIELAAEKPKPEFNFKTARTPGRYIFQTNGLVIGYDDPLSSALDLEMERGQKIVLTGANGIGKTTLLKSILGLIKPLSGSVTLGDYLEIGYFEQEMDQSVTTTCIEEIWNEFPAFSQYEVRSALAKCGLTTKHIESQVRVLSGGEQAKVRLCKLINRETNILLLDEPTNHLDVDAKDELKRALKEYKGSILMVCHEPDFYDGLATDVWDCSKWTTRL” here?
**A.** not soluble

**Q.** For “MGSDKIHHHHHHMSIMNSLLQQKETVVKGWLTYYVSVDDPYVFALKDDHRLMDETGFVLENLFIGMTEDLAKMNTFARELGKAQFITSLGISRILFHIRLLEEFLLDYASEINAECNNYRELYLFSIKLHQVFSSFTQHLIEGYTLATEQLVQQKENQIIKSSTKLIWLAEKVFLLPLIGKITDERAKQITETALFETCEQPVNYLIIDLSGVQFDSANIGEYIEHFFSSLKLVGVTPIITGMQPETAKIMVQANLTEQKGIKTFATLRQATKSLIKEKEARNAIK”, which “soluble on expression in E. coli” value is on record?
**A.** not soluble

**Q.** For “MGSDKIHHHHHHMSINVLIVDDSLSACRVLSRHFLLLDVDKVEFCRDARSAIRTLSKYSDDYQIVVVDLHMPEVDGIEFLMRLSKMEFKGGIIIASGMESRIVEAASQLVEASKLRLLGALMKPVTTEQLRVCVERYRLMAFQGNGVRHKGLMSIDEIRRAINSNKIIPYYQAQVDIASGKIKGFEVLCRLQQGTRLQLITPDKFIDVAECNNALNSLTTKLLNNAIPEWALISQFESCKQCHLSINLTPKQLNQSGWHTRLMQYCEQNLLSPSRLTVEITENQVLDKQRQHSTISQLRMNRIGVAIDDFGTGYTNLSQLCTLPISELKLDRSLVHGIHKDPVSQTILKSMQAISGKLGIHLVAEGVEDIHDLNYLEQIEDISLQGYLICRPKPYSELVRWLKARERLVQA”, which “soluble on expression in E. coli” value is on record?
**A.** not soluble

**Q.** For “MGSDKIHHHHHHMSKAMISRENYLQQLIQFKDTDFIKVISGVRRSGKSVLLMQYRDYLQQQGIASENILYLNFESFEYQWVKDAQDFQQLIQEKMPSSQEKIYFLIDEIQFVEGWQKIVNALRVSFNTDIVITGSNANLLSGELATLLSGRYVEIKIYPLSFKEFLHAKNVDSQSRLVDKLYSEYEKYGGFPSVVMADEPLKETILSGIFDSIVLNDIAHRAGVKDTHILKSVILFLADNVGQLVNPSKISNTLTSERVPTSNHTISKYLDLLENAFLFYKAKQYDIRGKGYLKTNAKYFIVDNGLRRHAIGKKGANYANRLENIVFIELLRRGYSVDVGKLDSKEIDFIARKADEILYVQVAFEIPENTHETDNLLHIKDNYKKILITGKYYEQTEIDGIEVIYVVDWLLQ”, which “soluble on expression in E. coli” value is on record?
**A.** not soluble

**Q.** For “MGSDKIHHHHHHMSKAYSSNLTQDQWELLEPLIPVGKTGGRPRVVEMWQVINAIFYVLTQGCTWRNLPGDLPNWQTVYTYFRNWRKDGTWVSIHDQLRDWERVNNERAVSPTEAIIDSQSVKTAAMVTQQVGYDAGKKVKGRKRFLTVDTLGLVLPVLVSAASVDERSGGKLLLQKVKQMGDKVSRLNLIWVDGGYDGNPFMQWVMDFYRWVVQVVLRPRERKGFVLLPKRWVVERTFGWLTGCRRLNKDYELLPETAENFIYLAMIRIMVRRLA”, which “soluble on expression in E. coli” value is on record?
**A.** not soluble

**Q.** For “MGSDKIHHHHHHMSKHALKLIPSSTEHADVPNDCKNCGAYHLCMSLWLKTADSSLLERVVKKKQVFKRGEVLYRMGQPLEYIYVIRGGSVKTCVSTEDGQVQVMGFHAAGELLGLNAISNREHKCEARAMGVTSVCEVSVERFEELAKKDPAIQYEILKIMSAEIHHGQELLLLLGKHNAEERIAIFLLNLSRQFEQRHCSATEFTLCMSRSDIGNYLGIAEETVCRIFARFQDDGLISSEYRNVKLKDIKRLEQIANQRPQRSLRQTNVASLYF”, which “soluble on expression in E. coli” value is on record?
**A.** not soluble

**Q.** With “MGSDKIHHHHHHMSKKQFLDQLWARMAQKGDFPTLQYCIDNVFKTLNSDLSVGEMASTVLSDFSLSQKVIRLANSAMYRSFGGEVTTVSRAIMVLGVDTITHLTLGVQVLDFFQGVAPNRPQAARALKQAIMAGEITRALNDARGILGGEEGVVCTLMHHVSRLLVIFYFPDEWDRIMALSADGAMSENDACREVIDISLDDLAKAAAFRWRLPALIADGMLGRELHEETVLETHADWLGAVASLSSDAAASILAEQPEEVVLEPLLTHAQKLGLEPSHVNVAIQQAGTLKASMARSEAPDTGVGSLPDDGGKPADTLTRLQQALAEIRQEGAGMTVSQLAPLVLESAMRALNFSHCFLMLLHPTNKRFGARLGFGEGMRDKLEKLSFEEGFVPDVFHFAMIAPKPLLIEDLRDKAVSHRVPRWYRDAMPDTRSVLLIPVKVRNRCVAMICGDWGATRIAGGLTDGELIAAGDLAGEIATAVLRSAPQR” as the sequence, how does the “soluble on expression in E. coli” value read?
**A.** not soluble
